# Results published in article PMC10833452 (2023).
# Read-outs that look alike come from different tables or passages of the source.
# B1: 8H12 monoclonal antibody (mouse IgG) (antibody, V domains shown)
# VH: EVKLEESGGGLVQPGGSMKLSCAASGFTFSDAWMDWVRQSPEKGLEWVAQIRRKANNHATYYAESVKGRFTISRDDSKSSVYLQMNSLRAEDTGIYYCIRGMTYAMDFWGQGTSVTVSS
# VL: DIVMTQFQKFMSTSVGDRVSITCKASQNVRTAVAWYQQKPGQSPKAMIYLASNRHRGVPDRFTGSGCGTDFTLTISNVQCEDLADYFCLQHRNYPLTFGGGTKLEIK
# B2: 3E2 monoclonal antibody (mouse IgG) (antibody, V domains shown)
# VH: EVMLVESGGGVVKPGGSLKLSCAASGFSFSTYAMSWIRQTPEKSLEWVAAISSGGTNTYYPGSVKGRFTISRDKAMNTLYLQLSSLRSEDTAMYYCVRHSGNYVDSVMDYWGQGTSVTVSS
# VL: QIVLTQSPAIMSASLGEEITLTCSVSSSVSDMHWYQQKSGTSPKVFIYSTSNLASGVPSRFSGSGSGTFYSLTISSVEAEDAAYYYCHQWSSWTFGGGTKLEIK
# Columns and labels:
# Experiment in all cases: SPR
# WT-RBD [1] = target: WT-RBD
# WT-RBD [2] = target: WT-RBD; remark: listed apart in the source
# WT-RBD [3] = target: WT-RBD; remark: listed apart in the source
Binder,Kd (WT-RBD [1]),Kd (WT-RBD [2]),Kd (WT-RBD [3])
B1,400 pM,398 pM,–
B2,4 pM,–,3.54 pM
